From a protein production outcome set (Wang et al. 2014)

Experiment: label from the status in PepcDB records

Sequence	protein production
MLKNFNGRPSLATVLKASTVAGIAAAVLATGVPLEITRSYAEAVKVQAPAVPSFANVVDAVSPAVVSVRVENRVNPVSDNNNDGFSFDFNGRGFDDLPDDHPLKRFFKQFGQDPNDQQGHSRRFGQNGPNGGPNGPGGKGRLRPVAQGSGFFISEDGYIVTNNHVVSDGQAFVAVMNDGTELDAKLIGKDPRTDLAVLKVDGKGKKFTYVNWADDNNVRVGDWVVAVGNPFGLGGTVTAGIVSARGRDIGSGPYDDYLQVDAAVNRGNSGGPTFNLSGEVVGINTAIFSPSGGSVGIAFAIPASTARDVVADLMKDGQVSRGWLGVQIQPVTKDIAESIGLSEPSGALVVAPQAGSPGDKAGMKAGDVVTALNGETIKDARDLSRRIGAMQPGSKVELSVWRAGKAQPLTVELGTLPIDQKDASADDNSQPQQPEAPASEKALADLGLTVGPSDDGKGLAITGIDPDSDAADKGIKEGEKITSVNNQEVASPEDVVKVLNQAKKDGRTRALFQIQSNEGSRFVALPINGQG	failed
MSLSTAADLLRQGAACSVLYLTSVETESLTGPQAVARASSAALSCSPRPTPAVVHFKVSAQGITLTDNQRKLFFRRHYPVNSITFSSTDPQDRRWTNPDGTTSKIFGFVAKKPGSPWENVCHLFAELDPDQPAGAIVTFITKVMLGQRKEGHHHHHH	not failed
MSTYTARLGGRTHSFPSLAALLAAASPERSGDRLAGLAADSAEARVAARWALAEVPLARFLAEPVIPYEDDDVTRLIVDTHDARAFAPVAGLCVGEFREWLLSDAADAGSLAALAPGLTPEMVAAVSKLMGNADLVAVARKARVVTAFRSTIGLPGRLATRLQPNHPTDDPAGVAAALLDGLLLGSGDAVIGINPATDSPKAVRDLLELLDGVIRRYAIPTQSCVLCHVTTSIDLMERGAPVDLVFQSIAGTQAANASFGVTLGLLDEAYDAARGLGRGTAGQNALYFETGQGSALSANAHHGVDQQTVEARAYAVARRYDPLLVNTVVGFIGPEYLYDGRQILRAALEDHFCGKLLGLPMGLDICYTNHADADDDDIATMLTMLGVAGASFVICTPGGDDIMLNYQSASYHDALYLREVLGLRPAPEFEDWLSRIGLLDDAGAIRDVTGTAHPLTAIGRELAA	failed
MTITNSKAEAWELIGNQFWTIGRVAARPSDRENDIFLENIVPGSTVAVIGASTRFLIEKALERGASVTVFDFSQRMCDDLAEALADRCVTIDLLDITAEIPKELAGHFDFVLNDRLINRFTTEEARRACLGMLSLVGSGTVRASVKLGFYDIDLKLIEYGEQSGTLAKFFDPSDKTFHFREAGDVLDRALVPHGLIDKPTLLEWYRRRGKETRFDDEDVRALLSHDVVNARGYVTLEKAVELPDAPNTMLYQFSRRAG	not failed
MEYDYLVIAGYFALMVAISLLFKKMASNSTSDYFRGGGKMLWWMVGATAFMTQFSAWTFTGAAGKAFNDGFAVLAVFVGNMVAYVFAYFYFARRFRQMRVDTPTEGVKRRFGNTNEQFFTWVIIPLSVINAGVWLNGLGVFASAVFNADIVTTIWVTGLAVLAISLLSGAWGVVASDFIQTLVVAVISIACAAVALYVVGGPGEIVENFPGGFIMGPDMNYPLLLVCTFIFFVVKQLQSINNMQESYRFLNAKDSKNASKAALMALVMMLFGAVIWFIPPWASAILYPDAATQYSSLGAKASDAVYLVFARETMPLGTVGLLMAGLFAATMSSMDSALNRNSGIFVRSFYSNIVRKGQASDKELLRAGQIACLVNGILVIMMAQFFNSLKHLSLFDLMMQVATLLQSPILVPLFLGIIIRRTPKWAPWATVVVGMFVSWSVVKIFTPEFVGSWFGMDELTRREAGEMRTMITIAAHLVFTAGFFCLSTLFYKEETDTHKETTAEFFKDVDTECVAEEGQDIVDRMQRAKLGTLVIYMAAGLTLMVLIPNPLWGRLLFLACAASVFAVGYGLKKSAKLDTQLSKVAATTTQ	failed
MIWNIDYFCNLRCKSCNAWQGKIFFPEDQIDKHLQEMKNNGIKIVSVTGGEPTLNKNVVDIIRKLKENHFFTHIATNGTNPYVLRKLYPYLDAVTISLDSNIPEEHNAYRGLKIFDTVVSNIKEAKSKVKIVTANMLVTNF	failed
MAHRRDRGLLGIWGDLVLTSVFIAAVSLALFWMAAFTLWWQMHAWRTPEVLASTRFSRPDGGEGLSFSLLLPARHEQAVLDHTIQRLLESSHTDFEIIVIVGHDDPETTEVARKAAARDERVRVVVDTHEKKNKPKAMNTALPHCRGDVVGVFDAEDQVHPELLAHVDHAFRSTGADVVQGGVQLINFNSSWYSLRNCLEYFFWFRSRLHLHAQKGFIPLGGNTVFVRTDVLKEADGWDPDCLAEDCDLGVRLSSVGKKVVVAYDSDMVTREETPGSLMSLLKQRTRWNQGFLQVYRKKDWKQLPGFGQRLLARYTLMTPFLQAISGVIIPLNAAVALFLDVPVGIAFITFLPAVTAFVTFVFEVVGLHDFGKQYGLRVRSVHYLKLIVGGPFYQVLLAGAAIRAVWREQRGRNDWELTSHVGAHLTEVIREDVPA	failed
MQNSFLPLNTRRFRQRAQVETPDTVYWDRLAKPELLKEHNTIDYLDFSPSDPDNFVVTCSVRVQIYNLVTMLVVKNLSRFQKTAYGATFRQDGRLLAAGDEEGHVKLFDTTSRNILRLFKGHTAPVHRTFFTADKLQLASFGDDKSVRLWDVANEKVVQTYEDTHTDYVRAGAMHPQAGHMFVSGGYDGKIKLYDTRAETAVQRTLDHGAPVESMLFLPNGSIFVSAGGSQVRVWDLISGCRLLTMMSQHHKTVTCLRLGSDGRRLLSGGLDRHVKIYDVSTYKTVHTLTYPNAVVSMAVADGDQAVVAGMVDGLVSIRRMMVDSKPSHLKKIRADRARKYFVSTKRTNNTQEVDHTIKDHVKGPGLKSYDVHLRQFNHKKALDDVMNAQKMQYQPELIVAVITDLLHRGSLGKALTGRHEAALVRFIDFICNHLGEVRFMRPLMMAASTVLDVFEQRLVAYSQKLMKALQRLSLAMQEEVRLTAELMRMKGAVDMLIGISMDNSEVAHKPTYVETKTPKMHPSVAAQNYVVLVE	failed
MLRSCARRLRTLGALCQPPPVGRRLPGSEPQPALRSFSSEEVILKDYSVPNPSWNKDLRLLFDQFMKKCEDGSWKRLPSYKRTPTERIQDFKTHFLDPKLMKEEQVSQAQLFTRSFDDGLGFEYVMFYNDVEKRMVCLFQGVPYLEGPPGLIHGGAIATMIDATVGMCAMMAGGIVMTANLNISCKRPIPLCSVVRINSQLDKVEGKKFFVSSNVQSVDEKTLYSEATSLLIKLNPAKSLT	failed
MPGPKKPVTPEDIIRLTFVSNPSVSPEGDKVAYLATKADEKENTYRSGIWLAEEDSYRPLTGGPYDRCPAWSPDGEIIAFSRTVNSNQRKRHYIAIVSPKGGEPQVLHESVSPATSIKWSSQGSMIGYLSRKPTGREWKPYSERDVLEIDRIPVWFDSEGWVFDRYWGLTVISYPGGEVLLEKGGVNYNIVDFDFAPDDNTIVYAVSTDMKKPFIHKLVLWDLASGREKTLIEGLTIAAVAFDPRGRYIAVKANDRKRGLFSHYKIFVYDLNSEEFVCLTCDLDLNTLNTVNSDARGPSCLRGMYWDDNGHLYYGVHNAGRMVVMKSRPLGEAEAVLDPSSATVDDFSISRGGDTIAYVKMGPTSPPDIYIYRDDNEYRLTDHNAWFAESRSLAEPVRLQVQSPLGGSIDAWILLPPDAGECSGCLPWILYIHGGPKTSYGYAFIHEFQMLASQGFAVIYSNPRGSDGYSEEFADLRGRYGVDDYSELMKVVDEALSDFPQLDPQRGGVTGGSYGGYMTNVIVTKTRRFKAAVTQRSCSNWISFYGESDIGWYFAPELISAQEPWRDLEKYVDFSPLFSVENIETPLLIIHSTEDFRCPLSGAIQLFTALKLKGVETRLLVFPGENHNLSRSGTPKRRVARLRAIASWFKEHLGSQQRG	failed
MPNDTHAQTGASGPTTLFTNANVLTVDAEFSTAQAIAIRGNRILAVGSDAEVRAAAGDDATVVDLEGKTVLPGFIDAHAHAVSGSVVDAIMDYVGMARFTTVDEVLNHIATRAAKTPAGDWLVFRNFDPAVQEGADALTFAELDPISTDHPIFILNASGHLAYANSRAFEVSGLTNDVPNPPGGEFVRDADGNLTGTIKNNVAFLQIAENYPAMKQVNPVEGLLGLLGKWSQQGLTTVSELSLGALAQSPADVQVMAAAAQSGRMTARLRAYPFYTLGTETWDNAGVKQGDGNALARVAGYKLVADGSNQGFTGLQREPYLNREDRGLAYMEPDELTTTALERAGKGWHLAIHGNGDAAIDNILDTCQALADAGIDMARVRPRIEHCSILHDEQIARMKALGVSASFLIGHVHYWGVAMRDQVFGLEKAQLLDRCKSVEEAGVGFTLHSDFMVTDPNPLHMIEMAVTRRTWKEPDYVLAPQERISVDSAIRAMTSEAAWQLFSDHEIGSLEPGKLADMVILDQDPRKVAPDEIKAIKVLETWMDGQRVFAA	failed
DMAFQLRTERLDLNMWEESDAVWLRELIGERGVEMPTVESVRNDLIEKRKIAVENGISLLTIRRRDEGDFIGYCGLIIGRSTLEEPEIAYELFRSAHRMGYATEAASAVLEAAIATGRKRLWSTVGAWNTASFRVLEKIGFKR	failed
MNIVVQSVYDNTQEFEIIKKWRENYIGINPANGNDFEYWESIREDCSYSFYFYYEDQLVGGVRLTPLGHGITMGERQLDLLRFISVPLETLEVNRLVIEERARGKKIMYESLQYCFHWDSRNTTHSELIALCLPHMVPLYRQVGATMIHDNLQSKEMPEKEYSLISINLKGL	failed
MIRNASIINVFRVSLALIVIVASASSLSAFWLLEKSEQDAELINVAGSHRMKAYKFALQLSSGKKVQASETAQEIDTLWEQPLLHRHFVKAGGSIQQLAKDARTEWQRVHSEIAEQDFARFSQQQSNAIDNYVNQLDTLVGQLQEHSERRMETVRSSLALASFFIVAIFFFLLTVLKRKINQPLRHLLAVSKRLGQGDFTAKSKIDNEDEIGQLSRTMNKMSETVSYFYGGLERRVEQQTQELSRKNKVLSFLYDTARSIIVHSYDYNNYQQVIEKLYEIGEVNDIELCLLTEEGNRPFLQLQPRPSSHEPCEAGDCATCLKAGPGASVIEDKLVYRFVLKREDQNYGVLIVRCEQGQPLATWQQQLMSSTADQLALSQSLKSEEEQVRRLALMHERTVIARELHDSLAQALSYLKIQVTRLHKGIEKNDRATIDDVSNELREGLNSAYRQLRELLTTFRLKVDGSGLYSALQTTVKQLTEQSNMVVHLDYRLNNIPLVPHEEIHLLQIIREASQNAVNHSQGSEVHISLSQPSGQDVELKITDDGIGLPENAEKVNHYGLAIMQERSRNLGGEIKISRLESGGTEVCFTFTPDYLLQ	failed
MSQSLIAALQNPALFPHPVESFQVIETHISWVLLTGPYAYKFKKPMNFGFLDFTTLALREHFCQEELRLNKRLTDDMYLEVLPITGTAQAPQLGGDGDVIEYALKMKQFSQDGLLSTLQANGELTTAHIDELARQIADFHLDSPHVTAESELGSPDSVMAPVVQNFEQIRPLISEKSDLEQLDALQAWAESSFERLKPLLAQRKADGFIRECHGDIHLGNATVIDGKVVLFDCIEFNEPFRKTDVYADIGFLAMDLEDRGLKSLSRRLVSQYLEVTGDYVGLELLNFYKAYRAMVRAKVALFSQPADADGVQRAATLRQYRNYANLAESYSAIPSRFLTITHGVSAVGKSHVAMRLVESLGAIRLRSDIERKRLFAEGGEDLYGDEASSATYARLHELAGKTLRAGFSVVIDATYLKREQRDAAAKVAENTGVPFLILDCEAPQAVIASWLAQRQAQNNDPSDATLQVIEAQQASRELLSADEVLCSKKVATNIGSDLDSLVDNLRQRLPGLLEHHHHHH	not failed
